A short description of this data set: label from the status in PepcDB records.
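Note: failed if final PepcDB status was selected cloned or expressed and not failed if soluble or beyond.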

Regarding “MRASQSAIFRRIDPFAILSFTIPLAVYLLTLAPSVTFFDSGEFITAIHSLGTAHSPGYPLFVNYGKPFTWLPFGNIAFRVNIATAVSASAACFAVYFLTHYLLKREELVPDLRFSDTFARLCGLAAALAFAFSARLWLQSNHDKPYPLVAFMTAMVFYLLVTWRERYDEGEMRPSHIYLGAFICGLATGAHQTIVLMLPAYAWLILSKNWRLAARVKELALTVAFGLMGFAIQLHMPIRAMRNPLLNWGDPRTLDLFLWNFLRKGYPVEPPDRNLALAWQQLSAFNLPREFTWVGLVLLLVGIGAFFTRRRDEIIAYLLAIVCSLLVIVGYFNTPGDLIFLTEEFFTPIYLLSAVFIGLGLFTLLRLALRNNPVEKLRTVPIKLMAGLLLLVLPSAICAMNYYENDQHENYVAFDYATNTLRSLSPGAVLFTWGDSGAFPLWYLQGVERMREDLDLLHTPHLVFDWYLDAFPHLFGRSVLRTMPERRQSSEVALKLAVAEQIVSRPVFIDFSTRYSLPFAEYGLKQRGICYQLINDGGSVLRPPDLAVWRLYASRGYTSQMGFRDLDTGKAILIYASCRMEAGEILLRMGYRQQGAEELSAAAAIAPELRAQVEQVLAAYGAR”, the protein production result was “failed”. Turning to “MRASTLLIIAGMFIVSLYALIEVSFYSSQVTVHRPDVRAPVIEVPSINLTETINNRSVFYGVYHEPMSYPPGNRTVILFGHRTLYGSPFLHLDKLRAGDSVYLNWPGVGFAEYRVNRSFIVPASYQMPVNQGAKLFLITCHPLGSTRERLIVECHLEGIRPYQRNVRVDNPKSYYSIPIILGFLSAGLLVTRFYPVEEDRRFLLAAVIGLTVFLVLGYLFPIPPEFISDKLMEFNNILGI”, the protein production result is listed as “failed”. The result for “MRATEDHTIFDRGVGQRDQLQRLWTPYRMNYLAEAPVKRDPNSSASPAQPFTEIPQLSDEEGLVVARGKLVYAVLNLYPYNPGHLMVVPYRRVSELEDLTDLESAELMAFTQKAIRVIKNVSRPHGFNVGLNLGTSAGGSLAEHLHVHVVPRWGGDANFITIIGGSKLEHHHHHH” reads “failed”. On to “MRDALHVTADDADATDDAIPDSRETGVTGVVLAGGLSTRLGHDKAVIRLHGEQGPDLLVRTAALLEPLVDEVWISCRPGRCVTGPYLRIYDEVQGLGPFGGVMTALRAAQGPVLVLSCDLPFMERTLLERLLERRGARHPEALMTTFRQEETGFIESLVAVYEYACLPFFEDALTDGVHKLSRVIPAERREDIVYTQNEALPFFNVNYPADLEMARRIIGALLEHHHHHH”, for which the protein production entry is given as “failed”. To “MRDALLGALDAGAVCVNVDLAHAGQQAKLEPDTPYGDALGVGAGRNWAHVNSIAYDAKDDSIILSSRHQGIVKIGRDKQVKWILAPSKGWNKQLASKLLKPVDDHGKPLTCDENGKCKDTDFDFTYTQHTAWLSSKGTLTVFDNGDGRGLEQPALPTMKYSRFVEYKIDEKKGTVQQVWEYGKERGYDFYSPITSVVEYQKDRDTMFGFGGSINLFDVGKPTVGKLNEIDYKTKEVKVEIDVLSDKPNQTHYRALLVHPTQMFKLEHHHHHH” belongs “not failed”.

Take “MRDEAGSRGIVMQNASANALVPREAARAAPMADIQKIAQHMARLNVAALPRNYELFHEAIIGLNAGLAQDIAALGSQPQQPMLDELGLKYRLAGHCGLAGETSRNEASRMLRDVAERLAEGLRHKNAFARACGTILKSVSGQNDQSLAAFLSEIDYLTASLSTVLAAEMEIGAKLQDDIKTLETLERGISAMQSAAIADRITGLPNRIALNRTIADLYERQEGAAGSALIMVDIDNFTDLNDKYGTQAGNKLLKKLAGLLQKSIKKNDFVARTEGDEFALLFSNVGMQDAIAIAERLRASVEDNLVFATSDKTDRGRLTISIGVALSTDAATPGQLQANARVALLAAQSNPRLPVQAFGR”: the protein production result is listed as “failed”. To “MRDILFIYLLTLGIKLYAYFLSGFTAILADAFHSVIDITMILILLLSERYAEKEADYQHPFGHEMARNVASLAVGVGFITFMFFELMKEGLLKVLHPASGYSNVEVALGAEVAVLALLVIAALISARRSGILNRTLLVESLNDSLSTLAAIVGVGLVWAGYPIFDGIATIAIAFIIFYNSFRLVRDNARLLIGMSPSEDFYRSVEDACLEIERVKGVHDMVGVYTGENSVHLDLHVTVDGAMTIEEADKLSVEIAEAIMAKHPEVKHISVHFCPHDGRRRKLY” belongs “failed”.

Regarding “MRDRGDKPAEAGLGLTQTRQEDPAAMIDLYYAPTPNGWKISIMLEECGLPYKVVPMQLGRGDQHQPGFLKLSPNGRMPAIVDHAPIGGGAPLSVFESGAILIYLAEKSGQLMPTETRARFEVMQWLMWQMAGLGPMLGQNGHFLLYAPEKIPYAIDRYSREAKRLYGVLDQRLADRACIAGDYSIADIACFPWIMTHKAQGLTLDDYPNIKRWYAALRARPKLQAGLALGKEDKKPMDEQARKLLFGVDKPAHADAQAQSAQQQ”, the protein production result is on record as “not failed”. As for “MRDRRAPSPCGWRSGRNDLRPARLDLAISAAMRTNSAPQPEGDADQPPSPSTPPAGPPPRRRFGFARRLLAPVLSPVAHYARRYLQASVEHELRQTQGQLHALSAELNAAQARIDHNRELMHLMLQQQQASAVAMQSVLAQLARIEGHSARAEDHGIRIEGLSRKLDGDIAGLPGVFGPRFDELEIKQRPLIAYDDESMAIRMRDGYVLAPRNLPTFVTMLANATSRGLEPGTGDVLRRLVQPGMVVADVGANIGLLTLVMAWATGPGGRVIAFEPEAIPRSNLEKMKHLNGLSWVEVRDQAVGERAGRLTFHVSDIIGHSSLYALPDAEEARTVEVEVVRLDDVAPAKRLDVVKIDVEGAELDVLAGMKGVIAKNPDLAIIAEFGPEHLARVGQTPVQWFKAFGDAGFKAYMINETSGDCEPTSAKAATTVVSANIAFVRAGGDAEMRLLGR”, the protein production entry is on record as “failed”. To “MREEELNTEKVVAAIANPVENEVRKVWEDVVEKIEQRVAVIEQASHKLLQNKVSEEILSKAKVEAHKLAGSLGMFGSDEGSQIAQEIESLLDNGKKLKASGGKHLGQVVELEHHHHHH” belongs “failed”; to “MREGRLGYNSYNKRYGLLSSDLWIDTGFHCGEYLEVLLDDEWVQTRMEMNPAREWYLVGTPYCGDLEYIRARIPE”, “failed”. The result for “MREPVDLRRQRILAAVQARGTARVRDLADELQVSVVTVRRDVEELTREGRLSRGHGVVRSTLPARESAPEAVPAAGDRVAVVVPVRHSYLTETLHGARTVLERAGVRMALHLAPQASGAERPLVERALADGADGLLIAPRWRGRADEEADHEWLAGTGVPTVLMERRPWRGSALHALDSVCSDHWYGAHLAVEHLVGLGHRRIVVATRHDSPTARSLRAAFTEIAGAHPLVERWAWTLVAPEAGADGPYSADETAEPPALMRKVGATAMVLHGDVDALMVVQRLAEEGVRVPEDCSVVAYDDVVAGLAAPPLTAVSPPKAEVGHTAAELLLQRLTEAPGGRRPGRRVELLPRLMVRGSTDRSVEPLDE” reads “failed”; that for “MRFGSRIEDGTGAPGAGRLARFAAVGGSGVVVNLAVLHVLAQGLGVPEVAASAVAIEASVLSNFLLHDAITFRDRRGGRGRLARLGRYHAVSLVGVAIQLATFAALALLARHALGRPSLGPLRLPAQAAGIALAFAWSWAGSARWAWAGAGAAVRGPEAGARGRALLPAVLFGALVALHVLPIWLVRYFPTQDGPLHVENVLALLHHGASPLLRGYYEANWGAQPNWLTQALLAPLLSIVSPLTAEKLVLSGYTVLLPISFRAVLPRGARGWWAALAVFPFVHAYPFHMGFWNFCYGVALAFLAAGFWLRTRGRLGPGRFAALAVLSLLLYLAHSVAFAGALLFAGAVLGLRAARSLARARRHPARRRRVAAAYARRAAAGLAAAAPGLLLLGAWLLAHRDRVAARIPLPELAAKLAAGYSLVSIDRRELPLAMAVMLVLAVAVVHAALVRAGRGVRLLAHDGWLVAAAAFVLLYFAVPDVVAAGAHVSDRMALLALLCVAAWLGAASAGPGAPARRAAVALAAIAVVALGVRLDKQRQLSAYLEEYASASAAVEEGRVMLPLALSPYGPQDAHGRRMGYRIKPFLHATGWIVAARGGVDLKNSQANTDHCPVRFPAGRNPFHVIAGSLGRMEGVPPCVDLRGARRLGRLDYVLVWGATRELLETPCGAALAADLAARYEPVWLSAPRGMLEIWRPRAAVAVAR”, “failed”. As to “MRFKQNADHIVLTHVFNGGSAESAALCPQDKIIALDGYACTDFAAQWARYHVRAKINIHFFRAGILRQTVLTVQATALEHHHHHH”, the protein production entry was “failed”. “MRFLAYFGHLNIDVLISVDSIPREGSVNVKDLRPRFGGTAGNFAIVAQKFRIPFDLYSAVGMKTHREYLAMIESMGINTGHVEKFEDESGPICYIATDGKKQVSFMHQGAMAAWAPQLADEYEYVHFSTGPNYLDMAKSIRSKIIFDPSQEIHKYSKDELKKFHEISYMSIFNDHEYRVFREMTGLSSPKVTTIVTNGERGSSLFMDGKKYDFPAIPSSGDTVGAGDSFRAGLYLALYNRRSIEKGMIYGTIIAHHVIDDGIENFSLNMEDLERETENYRRMFTKRS”: the protein production result is reported as “not failed”.

As for “MRFLSLVGNSFGCSASGERLVSAARDGDLQEAKALLDYNPRLARYSTFGVRNSPLHYSAAQGHHEIVSLLVESGVDINLRNYRGQTALMQACQHGHWEVVLILILFGANIHRSDYLNGGTALHLAALNGHPRCIRILLSEYIPSVPNCWSLLKNKKTSVAGFDSSVLHEVINRAADGGITPLHVAALNGHIETVQLLLDLGASVTQVTVEDGTTIDLIGAGSTALHYASCGGNTQCCQLLISKGACLAAVNSNGWTPMMVARSWHRNWLEEILNPTTEQPQLHLPNVPSPFLCLPLMSIVNIAQECGWRENDCLTPCRDPCAVCLERKCTVAADGCAHEFCTNCALYLSTTSITSSKTSNVTPGSVPCPLCRNGIVSFTKLPHTTATTRTSTSSRTSISLSFCTCSSDVLDTALLTNPHYSCKPVVSRTGSRTPQSARSSAFRSLSCRRFPPSLCLGGSDVDEPRSRLIGGSYSRSGVGFRRSTSQVEGKRSWFSALNHCVTTGGSAC”, the protein production entry is listed as “failed”.

Consider “MRFSFLPIVILMMPILEIAGFIIVGKAIGLWLTLALILFTSFLGLLILRLGGVGMVRNLQAAGRTGAQPADELVNGAMRVVAGILLIIPGFITDILGLLLLSPAIRRFFWKAFGPRVVVSGSFRQSGPQQGDYSGFRNGPGPAGNSKVVDLDEEEFHREGSKDSPWSNRPDDRDLPKP”, for which the protein production result is “failed”. To “MRGCNKETGEFLGPSRSQQRRTALEVLVLSEKLAALTPAQLAKLPIPERLLPHITETKRITSHIARKRQLAFLAKQMRREDDTTLEAIREKLNASGIQAQREVATLHRTEQWRKRLLEEGDSALTELLNQYPQADCGKLRQLLRNSKTEQARNKAPQAFRELYQVLHGLIITQ” belongs “not failed”; to “MRGDKFTLRDSLCLKVDGGRGVCLKGDGGRGVCLKGDGGRGVCLKGDSCDFNHSYTLPRREEVEKHQIELFKEEILSYMRKWISPHEFLQKVLDFNLKSLLVDLAATFNVRYPERQRLLV”, “failed”. The result for “MRGKHIFIITALISILMLAACGQKNSSATVATATDSTITKSDFEKQLKDRYGKDMLYEMIAQDVITKKYKVSDDDVDKEVQKAKSQYGDQFKNVLKNNGLKDEADFKNQIKFKLSMNKAIKQSVTEKDVKDHYKPEIKASHILVSDENEAKEIKKKLDTGASFEELAKQESQDLLSKEKGGDLGYFHSGAMTPEFETAAYKLKIGQISDPVQSPNGYHIIKLTGKKDLKPYDEVKNSIRKNLEEERTADPIFGKKLLQSELKKANIKINDSELEDTFTIVSPQGN” reads “failed”; that for “MRGKKRIGLLFLLIAVVVGGGGLLLAQKVLHKTSDTAFCLSCHSMSKPFEEYQGTVHFSNQKGIRAECADCHIPKSGMDYLFAKLKASKDIYHEFVSGKIDSDDKFEAHRQEMAETVWKELKATDSATCRSCHSFDAMDIASQSESAQKMHNKAQKDSETCIDCHKGIAHFPPEIKMDDNAAHELESQAATSVTNGAHIYPFKTSHIGELATVNPGTDLTVVDASGKQPIVLLQGYQMQGSENTLYLAAGQRLALATLSEEGIKALTVNGEWQADEYGNQWRQASLQGALTDPALADRKPLWQYAEKLDDTYCAGCHAPIAADHYTVNAWPSIAKGMGARTSMSENELDILTRYFQYNAKDITEKQ”, “failed”.
